We go through three substances from PMC5686756, “IKKγ-Mimetic Peptides Block the Resistance to Apoptosis Associated with Kaposi's Sarcoma-Associated Herpesvirus Infection” (Journal of Virology, 2017).

For this assay, the target named is ks-vFLIP (purified, thermofluor assay) (Kaposi's sarcoma-associated herpesvirus (KSHV)) (UniProt Q76RF1). As to the kind of experiment: thermofluor (thermal shift); 30 μM ks-vFLIP combined with IKKγ or mimetic peptides, SYPRO orange 1:1,000, 96-well plate, thermal denaturation.

Sequence of IKKγ fragment encompassing residues 150 to 272 (Q9Y6K9 150-272): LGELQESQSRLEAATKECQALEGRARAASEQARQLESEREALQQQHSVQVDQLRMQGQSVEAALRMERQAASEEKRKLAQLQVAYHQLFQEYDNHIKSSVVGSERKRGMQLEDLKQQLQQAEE
Sequence of unmodified IKKγ 30-mer peptide (residues 224 to 253) (Q9Y6K9 224-253): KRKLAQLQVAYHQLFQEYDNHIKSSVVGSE

In the case of “unmodified IKKγ 30-mer peptide (residues 224 to 253) (from UniProt Q9Y6K9 224-253)”, the shift in melting temperature at 100 μM was found to be 4 °C.

As to “unmodified IKKγ 21-mer peptide (residues 226 to 248) (from UniProt Q9Y6K9 226-248)”, the shift in melting temperature at 100 μM was found to be 4 °C.

As for “IKKγ fragment encompassing residues 150 to 272 (from UniProt Q9Y6K9 150-272) (domain or fragment)”, the shift in melting temperature at 30 μM turned out to be 8 °C.
